{
  "source": "patent US20220308056",
  "proteins": {"B1": {"name": "recombinant MASP-2 (rMASP-2) of Example 23 (protein)", "chain": "TPLGPKWPEPVFGRLASPGFPGEYANDQERRWTLTAPPGYRLRLYFTHFDLELSHLCEYDFVKLSSGAKVLATLCGQESTDTERAPGKDTFYSLGSSLDITFRSDYSNEKPFTGFEAFYAAEDIDECQVAPGEAPTCDHHCHNHLGGFYCSCRAGYVLHRNKRTCSALCSGQVFTQRSGELSSPEYPRPYPKLSSCTYSISLEEGFSVILDFVESFDVETHPETLCPYDFLKIQTDREEHGPFCGKTLPHRIETKSNTVTITFVTDESGDHTGWKIHYTSTAQPCPYPMAPPNGHVSPVQAKYILKDSFSIFCETGYELLQGHLPLKSFTAVCQKDGSWDRPMPACSIVDCGPPDDLPSGRVEYITGPGVTTYKAVIQYSCEETFYTMKVNDGKYVCEADGFWTSSKGEKSLPVCEPVCGLSARTTGGRIYGGQKAKPGDFPWQVLILGGTTAAGALLYDNWVLTAAHAVYEQKHDASALDIRMGTLKRLSPHYTQAWSEAVFIHEGYTHDAGFDNDIALIKLNNKVVINSNITPICLPRKEAESFMRTDDIGTASGWGLTQRGFLARNLMYVDIPIVDHQKCTAAYEKPPYPRGSVTANMLCAGLESGGKDSCRGDSGGALVFLDSETERWFVGGIVSWGSMNCGEAGQYGVYTKVINYIPWIENIISDF"}},
  "biological_target": "recombinant SARS-Cov-2 nucleocapsid protein (NP2), P0DTC9",
  "data": [
    {"protein": "B1", "values": [
      {"measurement": "C4 cleavage on NP2-coated wells (SDS-PAGE Western blot)", "result": "a new band corresponding to C4′α"}
    ]}
  ]
}
